From article PMC9127804

Biological target: N-terminal hexahistidine-tagged CrlT (Pseudomonas aeruginosa WK172)
Assay: pull-down; NHis-CrlT and untagged CrlA co-produced from pET28b-His-crlTA in E. coli BL21; Ni-NTA resin, lysis buffer 50 mM potassium phosphate pH 8.0, 300 mM NaCl; Tricine-SDS-PAGE

## untagged antitoxin CrlA (natural protein)
  stoichiometry N: 1
